The record followed here is patent US20250215091A1, “Anti-GAL3 Antibodies and Compositions” (Les Laboratoires Servier, priority 2022, published 2025).

The subject of assay [1] is murine model of bleomycin-induced fibrosis. Briefly: Bleomycin-induced murine lung fibrosis model: body weight and body weight metrics. It counts as in vivo, mice. As to the method: Control bleomycin mice named ‘Bleo’ received an administration of 1.65 mg/kg bleomycin by the oropharyngeal route on Day 1. […] Antibody-treated mice also received an administration of 1.65 mg/kg bleomycin by the oropharyngeal route on Day 1 and a subcutaneous injection of 20 mg/kg antibody, starting on day minus one and on days 4, 8, 12, 16 and 20. Each antibody was solubilized in sterile, endotoxin-free PBS before injection. Mice that received bleomycin were also treated by oropharyngeal administration of 0.5 mg/kg of TD139 compound (Bleo-TD139), a small molecule Gal3 inhibitor, starting on day 12 and every 2 days until day 20. TD139 was initially dissolved in 100% DMSO.
Mice were weighed daily. Their growth curves are represented on FIG. 12. Control mice had normal growth with a mean percent increase of 6.4% of their initial body weight measured on day minus 1.
Body weight metrics were assessed by using two parameters called Time to weight growth (TWG) and Time to baseline (TTB), shown on FIG. 13. Time to weight growth corresponds to the point of inflection when mice show an ascending growth curve and start to regain weight within the course of the experiment. Time to baseline corresponds to the number of days required for mice to recover their initial body weight (day minus 1). The median TWG was 10 days for the untreated bleomycin group. […] TD139 compound had no efficacy on this parameter (p-value 0.53).

The test system of assay [2] is rat model of ARDS. The experiment in a line: Rat ARDS model (LPS challenge): total BALF protein (BCA assay). The assay is classed as in vivo. To be noted: antibodies 14 mg/kg x3 prior to LPS; dexamethasone 10 mg/kg oral; vs LPS group; FIG. 17. The procedure: (§1) Positive control rats received 3 doses of sterile phosphate buffer at day minus 11, minus 6 and minus 1 prior LPS challenge (0.25 mg/kg by subcutaneous route at day 1). Negative control rats received one oral dose of Dexamethasone at 10 mg/kg (dissolved in 0.5% carboxymethyl cellulose in deionized water) 2 hours prior LPS challenge (0.25 mg/kg by subcutaneous route at day 1). LPS (lipopolysaccharide) causes an acute inflammatory response, whereas dexamethasone has anti-inflammatory effects thus being the reference treatment in this model.
(§2) Antibody-treated rats received 3 doses of antibodies (14 mg/kg) at day minus 11, minus 6 and minus 1 prior to LPS challenge (0.25 mg/kg by subcutaneous route at day 1). Each antibody was solubilized in sterile PBS before injection.
(§3) Control rats of the experiment received 3 doses of sterile phosphate buffer at day minus 11, minus 6 and minus 1 without LPS challenge at day 1.
The impact of anti-Gal3 antibody treatment in LPS challenged rats were evaluated by quantification of proteins (by BCA assay) in BALF and compared to the positive control group (LPS challenge with PBS treatment) (FIG. 17). The presence of protein in BALF reflects the damage to the air-blood barrier. […] Total BALF protein numeration levels were decreased after treatment with anti-inflammatory dexamethasone.

The subject of assay [3] is rat model of ARDS. The experiment in a line: Rat ARDS model (LPS challenge): neutrophils counts in BALF. To be noted: antibodies 14 mg/kg x3 prior to LPS; dexamethasone 10 mg/kg oral; vs LPS group; FIG. 16. It counts as in vivo. The procedure:
as §1, §2, §3
The impact of anti-Gal3 antibody treatment in LPS challenged rats were evaluated by quantification of neutrophils in Bronchoalveolar Lavage Fluid and compared to the positive control group (LPS challenge with PBS treatment) (FIG. 16). […] Neutrophils numeration levels were decreased after treatment with anti-inflammatory dexamethasone.

The subject of assay [4] is plasma TNF alpha. The experiment in a line: Rat ARDS model (LPS challenge): plasma TNF alpha (MSD). It counts as in vivo. To be noted: 4 h following LPS challenge; vs LPS group; FIG. 18. As to the method:
as §1, §2, §3
For all rats, plasma sampling was performed 4 h following LPS challenge.
The impact of anti-Gal3 antibody treatment in LPS challenged rats were evaluated on plasma cytokine levels, namely TNF alpha and KC-GRO cytokines, and compared to the positive control group (LPS challenge with PBS treatment) (respectively FIG. 18A and FIG. 18B). TNF alpha and KC-GRO were quantified by using the MSD technology from Mesoscale.

Setting [5] is: bleomycin 1.65 mg/kg, antibody 20 mg/kg s.c.

B1: E07: anti-Gal3 monoclonal antibody, IgG1 format; VH SEQ ID NO 42, VL SEQ ID NO 43 (antibody, V domains shown)
VH: EVQLVESGGSLVKPGGSLRLSCAASGFTFSNYNMNWVRQAPGKGLEWISNIYGSSRYIYYADFVKGRFTISRDNAKNSLYLQMNSLRAEDTAVYYCVRSYYGGMDVWGRGTLVTVSS
VL: QSVLTQPASVSGSPGQSITISCAGTSSDVGGYYSVSWYQQHPGKAPKLMIYYDSNRPSGVSNRFSGSKSGNTASLTISGLQAEDEADYYCSSYTGYSTRVFGGGTKLEIK
Regarding B1, in assay [1] (setting [5]), the “body weight status on day 21” value is “full weight recovery” and the “day from which body weight reached values close to those of control mice” value came out at 18 days. For the same molecule, the “recovery of body weight” value in assay [1] (bleomycin 1.65 mg/kg, antibody 20 mg/kg s.c., FIG. 12) is reported as “more rapid recovery of body weight”. Also, the “reduction of median Time to weight growth (TWG)” value in assay [1] (median TWG 10 days for untreated bleomycin group, FIG. 13) is 2 days. Moreover, the “total BALF protein” value in assay [2] is on record as “also decreased with a statistic significance”. Further, in assay [3], the “neutrophils counts in BALF” value is listed as “also decreased”. Also, the “TNF alpha plasma levels” value in assay [4] was “also decreased, displaying an intermediary profile”.
